This note sets out measurements from publication PMC2192624 (The Journal of Experimental Medicine, 1996).

In the assay the target is T1, Gal4 DNA-binding domain (DNABD) linked to the full-length CIITA (pSGCIITA) (UniProt P33076 1-1130).
T1 sequence: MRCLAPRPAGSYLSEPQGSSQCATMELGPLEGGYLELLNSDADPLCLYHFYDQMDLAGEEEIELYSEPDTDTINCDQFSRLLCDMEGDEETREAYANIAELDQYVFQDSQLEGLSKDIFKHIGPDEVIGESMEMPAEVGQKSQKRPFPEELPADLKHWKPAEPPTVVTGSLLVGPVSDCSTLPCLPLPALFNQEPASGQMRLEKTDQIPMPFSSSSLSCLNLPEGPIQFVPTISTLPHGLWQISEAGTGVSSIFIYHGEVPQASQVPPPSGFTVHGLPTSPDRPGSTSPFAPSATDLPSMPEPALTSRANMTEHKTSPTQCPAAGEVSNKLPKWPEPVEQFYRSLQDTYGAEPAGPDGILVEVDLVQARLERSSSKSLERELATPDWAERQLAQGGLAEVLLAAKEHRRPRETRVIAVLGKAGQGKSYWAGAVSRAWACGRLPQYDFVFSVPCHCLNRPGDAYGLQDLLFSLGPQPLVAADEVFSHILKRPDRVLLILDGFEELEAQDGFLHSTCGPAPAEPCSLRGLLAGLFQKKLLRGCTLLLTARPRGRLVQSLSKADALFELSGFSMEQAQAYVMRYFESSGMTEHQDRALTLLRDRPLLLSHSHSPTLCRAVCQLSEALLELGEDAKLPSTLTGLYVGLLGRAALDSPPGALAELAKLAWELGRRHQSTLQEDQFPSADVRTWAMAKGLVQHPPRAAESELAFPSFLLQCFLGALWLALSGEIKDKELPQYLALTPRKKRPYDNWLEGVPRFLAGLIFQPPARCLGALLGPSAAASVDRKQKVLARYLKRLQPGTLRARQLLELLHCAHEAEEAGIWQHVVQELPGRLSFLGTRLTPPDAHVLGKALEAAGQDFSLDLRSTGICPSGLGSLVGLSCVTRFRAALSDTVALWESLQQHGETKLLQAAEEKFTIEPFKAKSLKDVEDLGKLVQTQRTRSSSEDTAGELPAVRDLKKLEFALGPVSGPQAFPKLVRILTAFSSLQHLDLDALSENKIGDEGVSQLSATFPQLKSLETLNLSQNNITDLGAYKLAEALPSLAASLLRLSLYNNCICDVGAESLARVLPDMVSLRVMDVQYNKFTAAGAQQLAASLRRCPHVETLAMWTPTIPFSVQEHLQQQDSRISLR
Nature of the assay: two-hybrid.

B1: Bob1 expressed from pCBOB1 (natural protein)
chain: MLWQKPTAPEQAPAPARPYQGVRVKEPVKELLRRKRGHASSGAAPAPTAVVLPHQPLATYTTVGPSCLDMEGSVSAVTEEAALCAGWLSQPTPATLQPLAPWTPYTEYVPHEAVSCPYSADMYVQPVCPSYTVVGPSSVLTYASPPLITNVTTRSSATPAVGPPLEGPEHQAPLTYFPWPQPLSTLPTSTLQYQPPAPALPGPQFVQLPISIPEPVLQDMEDPRRAASSLTIDKLLLEEEDSDAYALNHTLSVEGF
For B1, the “fold transactivation of pDRAUASgCAT (CAT reporter, with OBS)” value amounted to 95 fold and the “fold transactivation of pG1E1bCAT (CAT reporter, no OBS)” value worked out at 90 fold.
